Assay results taken from patent publication US20220010310A1, “An lncRNA integrates a DNA-PK-mediated DNA damage response and vascular senescence” (The Brigham and Women`s Hospital, Inc., priority 2018, published 2022).

Target: purified DNA-PK protein (Homo sapiens, UniProt P78527)
Assay: DNA-PK kinase activity, ATP to ADP conversion (luminescence)
Type: biochemical
Conditions: 10 pmol transcript, ATP 150 μM
Excerpt: FIGS. 9A-I. Identification of DNA-PK as an SNHG12 interactor. (A) Illustration of lncRNA pulldown using nuclear protein extract from HUVECs for in vitro transcribed biotin-labeled SNHG12 or negative control LacZ followed by streptavidin beads pulldown. Protein eluate was sent for MS. (B) Protein hits for SNHG12 (n=2, two technical replicates each). (C) LncRNA pulldown of biotin-labeled SNHG12 compared to negative controls LacZ and antisense transcript for SNHG12 (n=3). (D) RT-qPCR analysis for intravenous delivery of biotinylated SNHG12 to the aorta (n=4 per group). P value was determined by Student's t test. […] P value was determined by Student's t test. (H) Purified DNA-PK protein was incubated with in vitro transcribed LacZ or SNHG12 transcript (10 pmol) together with ATP (150 μM) and luminescence was measured for detecting conversion to ADP. […] P value was determined by Student's t test. (I) DNA-PK protein was incubated for 1 hr with the DNA-PK kinase inhibitor NU7441 (1, 10, 100 μM) to assess DNA-PK kinase activity by luminescence (n=1). […]
To identify the functional consequences of the interaction of SNHG12 with DNA-PK, we assessed the effect of SNHG12 on DNA-PK's kinase activity (DNA-PKcs). Incubation of purified DNA-PK protein with in vitro transcribed SNHG12 assessed the ability of DNA-PKcs to convert ATP to ADP. […]

B1: SNHG12: T7 in vitro transcribed SNHG12 lncRNA transcript used in MST and DNA-PK kinase assays (nucleic acid, listed as Homo sapiens)
chain: TCTAGAGCTAGCGAATTCCTTTCTCCCCGCCGCATTCCCGGTGTCGACTTACTAGCTGCAAGCCTCTGCCTGCCTTCCTGCGCGCCGTTCCCCGCTAGTCGCTGCTGCTGGCGCGCACTCGCCGGGTTTTTCCTCCCACGGCCTCGAGATGGTGGTGAATGTGGCACGGAGGAGCCGGGCCTTCCAACCCGGTGGGCCCGAGCTCCGAAAGGCCCCCTCGGCAGTGAGAGGGGCGGGAGCCCGCGGGGGCCGCGCCCTTCTCTCGCTTCGGACTGCGCAACGCTGCGCTCTGGGCTGACAGGCGGATAAAACGGTCCCATCAAGACTGAGAAAAAGCACACCAGCTATTGGCACAGCGTGGGCAGTGGGGCCTACAGGATGACTGACTTAGTCTACAGAGATCCCGGCGTACTTAAGCAGATGAAGACTCTTAAGATGACAGAAGGTGATTTTTCTGGTGATCGAGGACTTCCGGGGTAATGACAGTGATGAAATGCAGGGGACCTGGTTGCCCCCAAGTTTCCTGGCAGTGTGTGATACTGAGGAGGTGAGCTTGTTTCTGGAGCTGTGCTTTAAGGTAAAGTTGATCAGCTTAATCCTCCTGATCCCTTTCCCATCGGATCTGAACACTGGTCTTGGTGGTCGTAAAAGGAGGAAAAGTAATAGTGAAGCTGGCCTAAATGTTGTAATCTGGTATATGGCATGTGGGCTAGTTTCAGACAGGTTTCAGAGATGGTTGGATCTCTGAAATTGTAAAATGAAGTATAATCTTAGGCTAAGGGAAGGATGCGTGTGAAGCTCTGGAGGTTGGTATAGTAATAGCTGACCTATTACTGCATTTGGGAGGGATCTGTCATAGCTTCCTTGCCTCTTAATTAAGGGTGGTGTTTTTTTCTTTTAGATTCATGTTACATGTAAAGCTGTCCTCATTTGTGACTATGGACCTATGGAGTTGGGACAATCTCTATGGGAAGCAGAAGGCAAGGACCCCGGTCATTTTAGGTAGAAACAACAGCATGCTAATGCAAAAAATTATGCAGTGTGCTACTGAACTTCAGAGGTGATCAATAAAAGAAGAATAAAAAGACTAATAAAAGTAGAATTCTGATCAGGATCC
  increase of DNA-PKcs kinase activity compared to the LacZ control: 2 fold
